Measured values taken from US20200317768A1 (published 2020).
Numbering of substitutions follows the chain as printed.

T1: cynomolgus monkey FcγRIIa1 extracellular domain, C-terminal His-tag (cynomolgus monkey)
T1 construct: also called cyno FcγRIIa1; cynoFcgRIIa1; not shown: His-tag added to C-terminus
T1 chain: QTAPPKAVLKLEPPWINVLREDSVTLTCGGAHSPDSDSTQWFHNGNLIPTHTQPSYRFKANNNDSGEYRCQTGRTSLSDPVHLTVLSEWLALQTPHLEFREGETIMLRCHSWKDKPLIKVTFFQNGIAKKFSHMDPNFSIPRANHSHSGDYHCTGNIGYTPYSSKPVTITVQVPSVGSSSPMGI

T2: cynomolgus monkey FcγRIIa2 extracellular domain, C-terminal His-tag (cynomolgus monkey)
T2 construct: also called cyno FcγRIIa2; cynoFcgRIIa2; not shown: His-tag added to C-terminus
T2 chain: T1 chain with P95T, T121A, I127K, A128S, K130N, D135N, R142Q

T3: cynomolgus monkey FcγRIIa3 extracellular domain, C-terminal His-tag (cynomolgus monkey)
T3 construct: also called cyno FcγRIIa3; cynoFcgRIIa3; not shown: His-tag added to C-terminus
T3 chain: T1 chain with P95T, T121A, A128S, H133P, D135N

T4: human FcγRIIaH extracellular domain, C-terminal His-tag (human, UniProt P12318 34-217)
T4 construct: also called human FcγRIIa (type H); FcgRIIaH; not shown: His-tag added to C-terminus
T4 sequence: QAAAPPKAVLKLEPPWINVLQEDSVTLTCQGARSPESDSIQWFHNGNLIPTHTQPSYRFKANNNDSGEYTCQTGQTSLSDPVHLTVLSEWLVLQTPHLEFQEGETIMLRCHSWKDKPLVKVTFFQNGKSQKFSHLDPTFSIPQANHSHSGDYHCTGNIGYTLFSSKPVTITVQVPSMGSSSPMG

T5: human FcγRIIaR extracellular domain, C-terminal His-tag (human, UniProt P12318 34-217)
T5 construct: also called human FcγRIIa (type R); FcgRIIaR; not shown: His-tag added to C-terminus
T5 chain: T4 sequence with H134R

T6: human FcγRIIb extracellular domain, C-terminal His-tag (human, UniProt P31994 43-217)
T6 construct: also called FcgRIIb (human); not shown: His-tag added to C-terminus
T6 sequence: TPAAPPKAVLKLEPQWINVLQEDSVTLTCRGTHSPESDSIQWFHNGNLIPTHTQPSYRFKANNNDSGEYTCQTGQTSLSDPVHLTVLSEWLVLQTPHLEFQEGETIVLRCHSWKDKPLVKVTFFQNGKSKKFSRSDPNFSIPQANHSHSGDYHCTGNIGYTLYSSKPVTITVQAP

B1: M103205H795-MY270/M103202L889-SK1 (antibody, human IgG1, kappa)
heavy: QVTLKESGPVLVKPTETLTLTCTVSGIDLSHDDISWVRQAPGKGLEWVGIISYAGSTYYASWAKGRLTISKDTSKNQVVLTMTNMDPVDTATYYCARGVPAYSHGGDLWGQGTLVTVSSASTKGPSVFPLAPSSKSTSGGTAALGCLVKDYFPEPVTVSWNSGALTSGVHTFPAVLQSSGLYSLSSVVTVPSSSLGTQTYICNVNHKPSNTKVDKKVEPKSCDKTHTCPPCPAPELLHGPSVFLFPPKPKDTLMISRTPEVTCVVVDVSDEDPEVKFNWYVDGVEVHNAKTKPREEQYNSTYRVVSVLTVLHQDWLNGKEYKCKVSNKALPKPIEKTISKAKGQPREPQVYTLPPSREEMTKNQVSLTCLVKGFYPSDIAVEWESNGQPENNYKTTPKVLDSDGSFFLYSKLTVDKSRWQQGNVFSCSVMHEALHNHYTQKSLSLSP
light: DIVMTQSPATLSLSPGERATLSCTSSQSVYHANWLSWFQQKPGQPPKLLIYWASTLAYGVPSRFSGSGSGTDFTLTISSLQPEDAATYYCAGGYGGGRYAFGQGTKVEIKRTVAAPSVFIFPPSDEQLKSGTASVVCLLNNFYPREAKVQWKVDNALQSGNSQESVTEQDSKDSTYSLSSTLTLSKADYEKHKVYACEVTHQGLSSPVTKSFNRGEC
B2: M103205H795-MY293/M103202L889-SK1 (antibody, human IgG1, kappa)
heavy: B1 heavy with H238G, G239Y, D270E, Q297L
light: B1 light
B3: M103205H795-MY279/M103202L889-SK1 (antibody, human IgG1, kappa)
heavy: B1 heavy with Q297L, K398P
light: B1 light
B4: M103205H795-MY276/M103202L889-SK1 (antibody, human IgG1, kappa)
heavy: B1 heavy with H238I
light: B1 light
B5: M103205H795-MY310/M103202L889-SK1 (antibody, human IgG1, kappa)
heavy: B1 heavy with H238T, D270E, K328T, K398P
light: B1 light
B6: M103205H795-MY281/M103202L889-SK1 (antibody, human IgG1, kappa)
heavy: B1 heavy with H238Q, Q297L, K398P
light: B1 light
B7: M103205H795-MY271/M103202L889-SK1 (antibody, human IgG1, kappa)
heavy: B1 heavy with H238V
light: B1 light
B8: M103205H795-MY308/M103202L889-SK1 (antibody, human IgG1, kappa)
heavy: B1 heavy with H238T, D270E, K398P
light: B1 light
B9: M103205H795-MY280/M103202L889-SK1 (antibody, human IgG1, kappa)
heavy: B1 heavy with H238V, Q297L, K398P
light: B1 light
B10: M103205H795-MY292/M103202L889-SK1 (antibody, human IgG1, kappa)
heavy: B1 heavy with H238G, G239Y, Q297L, K398M
light: B1 light
B11: M103205H795-MY273/M103202L889-SK1 (antibody, human IgG1, kappa)
heavy: B1 heavy with H238L
light: B1 light
B12: M103205H795-MY311/M103202L889-SK1 (antibody, human IgG1, kappa)
heavy: B1 heavy with H238T, D270E, Q297L, K398P
light: B1 light
B13: M103205H795-MY272/M103202L889-SK1 (antibody, human IgG1, kappa)
heavy: B1 heavy with H238Q
light: B1 light
B14: M103205H795-MY278/M103202L889-SK1 (antibody, human IgG1, kappa)
heavy: B1 heavy with H238M, Q297L, K398P
light: B1 light
B15: M103205H795-MY309/M103202L889-SK1 (antibody, human IgG1, kappa)
heavy: B1 heavy with H238T, D270E, K398M
light: B1 light
B16: M103205H795-MY312/M103202L889-SK1 (antibody, human IgG1, kappa)
heavy: B1 heavy with H238T, D270E, K328T, K398M
light: B1 light
B17: M103205H795-MY274/M103202L889-SK1 (antibody, human IgG1, kappa)
heavy: B1 heavy with H238T
light: B1 light
B18: M103205H795-MY318/M103202L889-SK1 (antibody, human IgG1, kappa)
heavy: B1 heavy with H238L, D270E, K328T, K398M
light: B1 light

Molecular target: T1, cynomolgus monkey FcγRIIa1 …
Assay: SPR (Biacore), antibody captured, FcgR analyte, 25 C

Kd [nM]	Binder
1800	B1
2300	B2
2800	B3
1100	B4
3000	B5
1900	B6
760	B7
3900	B8
1000	B9
1500	B10
3700	B11
2300	B12
1900	B13
3000	B14
3500	B15
1400	B16
830	B17
7900	B18

Molecular target: T2, cynomolgus monkey FcγRIIa2 …
Assay: as above

Kd [nM]	Binder
2300	B1
3300	B2
3300	B3
1300	B4
2900	B5
2500	B6
700	B7
4600	B8
1200	B9
2500	B10
3500	B11
3400	B12
1900	B13
3600	B14
2500	B15
1500	B16
800	B17
7700	B18

Molecular target: T3, cynomolgus monkey FcγRIIa3 …
Assay: as above

Kd [nM]	Binder
2500	B1
3900	B2
4700	B3
4300	B4
7200	B5
9100	B6
3100	B7
1100	B8
4600	B9
2200	B10
11000	B11
8600	B12
6200	B13
10000	B14
7000	B15
3700	B16
2000	B17
32000	B18

molecular target: T4, human FcγRIIaH extracellular domain, …; assay: as above

Kd [nM]	Binder
73	B1
1300	B2
140	B3
53	B4
400	B5
130	B6
44	B7
450	B8
81	B9
950	B10
510	B11
200	B12
92	B13
530	B14
140	B15
110	B16
8100	B17
1100	B18

Molecular target: T5, human FcγRIIaR extracellular domain, …
Assay: as above

Kd [nM]	Binder
370	B1
73	B2
720	B3
250	B4
550	B5
390	B6
2300	B7
360	B8
450	B9
76	B10
1000	B11
450	B12
250	B13
1300	B14
260	B15
170	B16
170	B17
1300	B18

molecular target: T6, human FcγRIIb extracellular domain, …; assay: as above

Kd [nM]	Binder
2500	B1
150	B2
4600	B3
2400	B4
2900	B5
1800	B6
2100	B7
4100	B8
2900	B9
140	B10
3000	B11
2100	B12
1200	B13
4400	B14
1600	B15
1100	B16
950	B17
4800	B18

molecular target: T7, human FcγRIIIaV extracellular domain, C-terminal His-tag (human, UniProt P08637 17-208); assay: as above
T7 construct: also called FcgRIIIaV; not shown: His-tag added to C-terminus
T7 sequence (P08637 17-208 F176V): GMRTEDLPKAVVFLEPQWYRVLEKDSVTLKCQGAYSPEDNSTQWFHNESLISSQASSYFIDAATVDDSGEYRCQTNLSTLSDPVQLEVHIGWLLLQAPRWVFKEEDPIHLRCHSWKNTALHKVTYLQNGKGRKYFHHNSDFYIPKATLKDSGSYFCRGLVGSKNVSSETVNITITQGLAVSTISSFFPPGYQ

Kd [nM]	Binder
3700	B1
39000	B2
7000	B3
5700	B4
6900	B5
2100	B6
2300	B7
8300	B8
4400	B9
28000	B10
9700	B11
7100	B12
870	B13
3400	B14
4300	B15
2800	B16
2500	B17
8700	B18
